* marks the point of attachment. Biotin = O=C1N[C@H]2[C@H](CS[C@H]2CCCCC(=O)*)N1; AEEA = NCCOCCOCC(=O)O
Key:
hTLT-1 ECD-HPC4 M91A = target: T1, hTLT-1 ECD-HPC4 M91A (human, UniProt Q86YW5 16-162); experiment: SPR (ProteOn), mAb captured by anti-hFc, 100 nM mutant
T1 construct: As m27; also called Ala mutant 24
T1 chain: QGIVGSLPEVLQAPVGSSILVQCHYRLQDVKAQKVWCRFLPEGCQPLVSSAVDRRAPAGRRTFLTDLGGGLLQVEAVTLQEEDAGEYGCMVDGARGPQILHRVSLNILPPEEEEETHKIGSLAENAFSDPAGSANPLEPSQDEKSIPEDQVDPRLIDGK
Procedure: Anti-hFc Polyclonal antibody was immobilized onto separate flow cells of a GLM sensor chip using a 1:1 mixture of 0.4 M EDAC [1-ethyl-3-(3-dimethylaminopropyl) carbodiimide hydrochloride] and 0.1 M Sulfo-NHS [N-hydroxysulfosuccinimide]. Each anti-body was diluted in 10 mM sodium acetate pH 5.0 to a concentration of […], and was immobilized to an individual flow cell at 30 μl/min for 240s. The antibodies were immobilized to flow cells A1-A6 (horizontal direction). After immobilization, the active sites on the flow cell were blocked with 1 M ethanolamine. The final immobilization level of capture antibody typically ranged from approximately 9,000 to 10,000 RU in one experiment. Capture of the anti-TLT1 antibodies 0197-0000-0023, 0197-0000-0051, 0197-0000-0061 and 0197-0000-0062 was conducted by diluting to […] into HBS-EP buffer (10 mM HEPES, 150 mM NaCl, 3 mM EDTA, 0.05% surfactant P20, pH 7.4) and injected at 30 μl/min for 60s in vertical direction, creating interspot reference points with only anti-human Fc antibodies. The final capture level of test antibodies typically ranged from approximately 200 to 300 RU in one experiment. […] Each hTLT-1 ECD-HPC4 protein was diluted to 100 nM, based on the calculated average Mw, into HBS-EP buffer and injected at 30 μl/min for 240s. […]

[1] = target: T2, biotinylated 20mer TLT-1 stalk peptide 7 (N-terminal biotin via 8-amino-3,6-dioxaoctanoic acid (bio-Oeg)); experiment: peptide-walk ELISA, biotin-peptide on streptavidin plate, triple determination
T2 construct: also called well A 7
T2 peptide: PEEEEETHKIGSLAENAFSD
Procedure: (§1) Epitope mapping by peptide walk. The peptide walking ELISA defined the minimal binding region of the peptide. This was established by coating biotinylated peptides with one residue frameshift in the stalk region of TLT-1 in streptavidin plates followed by binding of the antibody of interest (mAb 0061). A secondary antibody was added for detection and binding was measured at 450 nm. Positive control: binding to biotinylated TLT-1.
(§2) 1) 20mer peptide mapping with one residue frameshift (20,1) (see materials) 2) 16mer peptide mapping with one residue frameshift (16,1) (see materials) [0687] 1. Plate was prre-washed 3× with 250 μl wash buffer [0688] 2. 100 μl Biotinylated peptide-solution was added (from Masterplate 10000× diluted, one peptide pr well) [0689] 3. Incubated at RT for 1 hour or +5° C. over night [0690] 4. Washed 3× with wash buffer [0691] 5. 100 μl Primary antibody was added (dilution see above) [0692] 6. Incubated at RT for 1 hour [0693] 7. Washed 3× with wash buffer [0694] 8. 100 μl Secondary antibody was added (dilution see above) [0695] 9. Incubated at RT for 1 hour [0696] 10. Washed 3× with wash buffer [0697] 11. 100 μl Substrate/Develop buffer was added (Reaction time 3 min) [0698] 12. 100 μl 2M H3PO4 was added [0699] 13. Endpoint was read at 450 nm

[2] = target: T3, biotinylated 16mer hTLT-1 stalk peptide 36 (SMILES …); experiment: as above
T3 construct: also called well C12
T3 peptide: {Biotin-AEEA}-EEEETHKIGSLAENAF-NH2
Procedure: as §1, §2

[3] = target: T4, biotinylated 20mer TLT-1 stalk peptide 12 (N-terminal biotin via 8-amino-3,6-dioxaoctanoic acid (bio-Oeg)); experiment: as above
T4 construct: also called well A12
T4 peptide: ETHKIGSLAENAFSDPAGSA
Procedure: as §1, §2

[4] = target: T5, biotinylated 16mer hTLT-1 stalk peptide 40 (SMILES …); experiment: as above
T5 construct: also called well D 4
T5 peptide: {Biotin-AEEA}-THKIGSLAENAFSDPA-NH2
Procedure: as §1, §2

[5] = target: T6, biotinylated 16mer hTLT-1 stalk peptide 38 (SMILES …); experiment: as above
T6 construct: also called well D 2
T6 peptide: {Biotin-AEEA}-EETHKIGSLAENAFSD-NH2
Procedure: as §1, §2

[6] = target: T7, biotinylated 20mer TLT-1 stalk peptide 16 (N-terminal biotin via 8-amino-3,6-dioxaoctanoic acid (bio-Oeg)); experiment: as above
T7 construct: also called well B 4
T7 peptide: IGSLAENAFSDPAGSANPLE
Procedure: as §1, §2

[7] = target: T8, biotinylated 16mer hTLT-1 stalk peptide 42 (SMILES …); experiment: as above
T8 construct: also called well D 6
T8 peptide: {Biotin-AEEA}-KIGSLAENAFSDPAGS-NH2
Procedure: as §1, §2

[8] = target: T9, biotinylated 16mer hTLT-1 stalk peptide 39 (SMILES …); experiment: as above
T9 construct: also called well D 3
T9 peptide: {Biotin-AEEA}-ETHKIGSLAENAFSDP-NH2
Procedure: as §1, §2

[9] = target: T10, biotinylated 20mer TLT-1 stalk peptide 5 (N-terminal biotin via 8-amino-3,6-dioxaoctanoic acid (bio-Oeg)); experiment: as above
T10 construct: also called well A 5
T10 peptide: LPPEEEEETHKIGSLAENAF
Procedure: as §1, §2

[10] = target: T11, biotinylated 16mer hTLT-1 stalk peptide 37 (SMILES …); experiment: as above
T11 construct: also called well D 1
T11 peptide: {Biotin-AEEA}-EEETHKIGSLAENAFS-NH2
Procedure: as §1, §2

[11] = target: T12, biotinylated 20mer TLT-1 stalk peptide 9 (N-terminal biotin via 8-amino-3,6-dioxaoctanoic acid (bio-Oeg)); experiment: as above
T12 construct: also called well A 9
T12 peptide: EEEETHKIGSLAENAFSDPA
Procedure: as §1, §2

- binding result (hTLT-1 ECD-HPC4 M91A): binds
- absorbance at 450 nm [1]: > 3 A450
- absorbance at 450 nm [2]: > 3 A450
- absorbance at 450 nm [3]: > 3 A450
- absorbance at 450 nm [4]: > 3 A450
- absorbance at 450 nm [5]: > 3 A450
- absorbance at 450 nm [6]: > 3 A450
- absorbance at 450 nm [7]: > 3 A450
- absorbance at 450 nm [8]: > 3 A450
- absorbance at 450 nm [9]: > 3 A450
- absorbance at 450 nm [10]: > 3 A450
- absorbance at 450 nm [11]: > 3 A450
B1: mAb 0061 HC2; LC2 (antibody, V domains shown)
VH: EVKLLESGGGLVQPGGSLKLSCAASGFDFSRYWMTWVRQAPGKGLEWIGEINPDSSTINYNPSLKDKFIISRDNAKNTLYLQMSEVRSEDTALYYCASGVFTSWGQGTLVTVSA
VL: DVVMTQTPLSLPVSLGDQASISCRSSQSLVHRNGNTYFHWALQKPGQSPKLLIYKVSNRFSGVPDRFSGSGSGTDFTLKISRVEAEDLGVYFCSQSTHVPYTFGGGTKLEIKR
notes: also called 0197-0000-0061; 0012HC.T60N + 0012LC.C36A

— patent US20120178908A1 (Novo Nordisk, published 2012)
